Data: article PMC11880201 (Nature Communications, 2025)

Biological target: TEAD (residue 28-104) of TEAD1 (UniProt P28347 28-104)
Assay: fluorescence polarisation

Sequence of TEAD (residue 28-104) of TEAD1 (P28347 28-104): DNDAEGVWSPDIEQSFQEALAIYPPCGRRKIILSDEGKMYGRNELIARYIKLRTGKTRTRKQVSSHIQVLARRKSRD

- Kd: 39.5 nM
B1: FITC-labeled INSM1 ZF1 (domain or fragment)
chain: not shown
modifications: FITC label (FITC rapid labeling kit), site not stated
